Data reported in article PMC10548113, “Modeling a variant of unknown significance in the Drosophila ortholog of the human cardiogenic gene NKX2.5”.
Where a chain is given by its changes, count along the chain named.

What was measured:
MBP-Tin R321N HD = target: T1, MBP-Tin R321N HD (Drosophila melanogaster, UniProt P22711 301-360, R321N); test: EMSA; 1.5 ug protein, equal to WT; EMSA: 40 mM KCl, 15 mM HEPES pH 7.9, 1 mM EDTA, 0.5 mM DTT, 5% glycerol, 4 ug poly-dIdC; temperature not stated; conditions: protein: recombinant; tags: N-terminal MBP; label: radioactive (probe); only one strand given
T1 sequence: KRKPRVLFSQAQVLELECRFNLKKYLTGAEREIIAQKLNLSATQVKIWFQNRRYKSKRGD

MBP-Tin HD (WT) = target: T2, MBP-Tin HD (WT) (Drosophila melanogaster, UniProt P22711 301-360); test: EMSA; 1.5 ug protein; competed by 300-fold excess unlabelled WT; EMSA: 40 mM KCl, 15 mM HEPES pH 7.9, 1 mM EDTA, 0.5 mM DTT, 5% glycerol, 4 ug poly-dIdC; temperature not stated; conditions: protein: recombinant; tags: N-terminal MBP; label: radioactive (probe); only one strand given
T2 sequence: T1 sequence with N21R

B1: Mp Tin1 site (dsDNA)
DNA 1: GGACTCTTTGGCTGAAGTGTCCGGTGAAA
DNA 2: TTTCACCGGACACTTCAGCCAAAGAGTCC
binding signal (MBP-Tin R321N HD): 7 % of WT band intensity | binding result (MBP-Tin HD (WT)): binds
